Source: US20240084027A1 (BEIJING MABWORKS, published 2024)
Read-outs that look alike come from different tables or passages of the source.

B1: anti-PD-L1 antibody 56E5VH5VL4 (antibody, V domains shown)
VH: QVQLQESGPGLVKPSQTLSLTCTVSGGSITSDYWNWIRQHPGNKLEYMGYISYTGSTYYNPSLKSRISITRDTSKNQFSLKLSSVTTADTAVYYCARYRDWDVRAMDYWGQGTTVTVSS
VL: DIVMTQSPDSLAVSLGEKVTMNCKSSQSLLISGNQKNFLTWYQQKPGQPPKLLIYWASTRESGVPDRFSGSGSGTDFTLTISSLQAEDLAVYYCQNDFGFPFTFGQGTKVEIK
notes: also called the monospecific anti-PD-L1 antibody; 56E5VH5CL4 [sic]
B2: MBS307-1 (bispecific antibody, human IgG1, kappa, L234A L235A)
heavy 1: QVQLQESGPGLVKPSDTLSLTCAVSGYSITTNYYWNWIRQPPGKGLEWMGYIKYDGSNNYNPSLKNRITISVDTSKNQFSLKLSSVTAVDTAVYYCARLDYWGQGTLVTVSSASTKGPSVFPLAPSSKSTSGGTAALGCLVKDYFPEPVTVSWNSGALTSGVHTFPAVLQSSGLYSLSSVVTVPSSSLGTQTYICNVNHKPSNTKVDKKVEPKSCDKTHTCPPCPAPEAAGGPSVFLFPPKPKDTLMISRTPEVTCVVVDVSHEDPEVKFNWYVDGVEVHNAKTKPREEQYNSTYRVVSVLTVLHQDWLNGKEYKCKVSNKALPAPIEKTISKAKGQPREPQVYTLPPSREEMTKNQVSLWCLVKGFYPSDIAVEWESNGQPENNYKTTPPVLDSDGSFFLYSKLTVDKSRWQQGNVFSCSVMHEALHNHYTQKSLSLSPGGGGSGGGGSGGGGSGGGGSGIPPHVQKSVNNDMIVTDNNGAVKFPQLCKFCDVRFSTCDNQKSCMSNCSITSICEKPQEVCVAVWRKNDENITLETVCHDPKLPYHDFILEDAASPKCIMKEKKKPGETFFMCSCSSDECNDNIIFSEEYNTSNPD
light 1: DVVLTQSPLSLPVTLGQPASISCRSSQSLENSNGNTFLNWFQQRPGQSPRLLIYKVSNRFSGVPDRFSGSGSGTDFTLKISRVEAEDVGVYYCLQVTHVPFTFGQGTKLEIKRTVAAPSVFIFPPSDEQLKSGTASVVCLLNNFYPREAKVQWKVDNALQSGNSQESVTEQDSKDSTYSLSSTLTLSKADYEKHKVYACEVTHQGLSSPVTKSFNRGEC
heavy 2: QVQLQESGPGLVKPSQTLSLTCTVSGGSITSDYWNWIRQHPGNKLEYMGYISYTGSTYYNPSLKSRISITRDTSKNQFSLKLSSVTTADTAVYYCARYRDWDVRAMDYWGQGTTVTVSSASTKGPSVFPLAPSSKSTSGGTAALGCLVKDYFPEPVTVSWNSGALTSGVHTFPAVLQSSGLYSLSSVVTVPSSSLGTQTYICNVNHKPSNTKVDKKVEPKSCDKTHTCPPCPAPEAAGGPSVFLFPPKPKDTLMISRTPEVTCVVVDVSHEDPEVKFNWYVDGVEVHNAKTKPREEQYNSTYRVVSVLTVLHQDWLNGKEYKCKVSNKALPAPIEKTISKAKGQPREPQVYTLPPSREEMTKNQVSLSCAVKGFYPSDIAVEWESNGQPENNYKTTPPVLDSDGSFFLVSKLTVDKSRWQQGNVFSCSVMHEALHNHYTQKSLSLSPGGGGSGGGGSGGGGSGGGGSGIPPHVQKSVNNDMIVTDNNGAVKFPQLCKFCDVRFSTCDNQKSCMSNCSITSICEKPQEVCVAVWRKNDENITLETVCHDPKLPYHDFILEDAASPKCIMKEKKKPGETFFMCSCSSDECNDNIIFSEEYNTSNPD
light 2: not shown
notes: Both long chains carry linker 1-TGFBII at the C terminus; also called asymmetrical anti-CD40/PD-L1 antibody MBS307-1; MBS307-1-1 + MBS307-1-2

Key:
[1] = target: T1, human PD-L1 on HEK293A/human PD-L1 cells (human, UniProt Q9NZQ7 19-290); experiment: FACS on HEK293A/human PD-L1 cells
T1 sequence (Q9NZQ7 19-290 limits assumed): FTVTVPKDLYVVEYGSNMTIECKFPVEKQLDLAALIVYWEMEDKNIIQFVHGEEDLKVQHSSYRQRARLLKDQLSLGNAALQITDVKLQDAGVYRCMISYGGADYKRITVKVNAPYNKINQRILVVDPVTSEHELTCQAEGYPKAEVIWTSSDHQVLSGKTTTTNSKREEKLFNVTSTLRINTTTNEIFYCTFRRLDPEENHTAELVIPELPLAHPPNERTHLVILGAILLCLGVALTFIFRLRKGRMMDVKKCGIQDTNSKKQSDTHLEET
Method: (§1) The bispecific antibodies as prepared above were tested for their binding capability to cell surface human, monkey and mouse CD40 proteins by FACS, using the HEK293A cells prepared in Example 1 that stably expressed human, monkey or mouse CD40. Briefly, a 96-well plate was seeded with 10⁵ HEK293A cells in 50 μl PBS, and then added with 100 μl serially diluted anti-CD40 antibody 714VH2VL2 and the bispecific antibodies of the disclosure (starting concentration at 40 μg/ml). After incubation at 4° C. for 1 h, the plate was washed by PBST for 3 times. The plate was added with 1:500 diluted APC-goat anti-mouse IgG (Cat #:405308, BioLegen, USA), incubated at 4° for 1 h, washed with PBS for 3 times, and subjected to fluorescence measurement in a FACS machine (BD).
(§2) Following the protocols in Example 4 and Example 5, the bi- or multi-specific antibodies of the disclosure were tested for their binding capability to human PD-L1 and human CD40 proteins by FACS using the HEK293A cells prepared in Example 1 that stably expressed human PD-L1 or human CD40.

[2] = target: T1, human PD-L1 on HEK293A/human PD-L1 cells; experiment: FACS on HEK293A/human PD-L1 cells; remark: listed apart in the source
Method: as §1, §2

[3] = target: T1, human PD-L1 on HEK293A/human PD-L1 cells; experiment: FACS on HEK293A/human PD-L1 cells; remark: listed apart in the source
Method: as §1, §2

[4] = target: T1, human PD-L1 on HEK293A/human PD-L1 cells; experiment: FACS blocking assay on HEK293A/human PD-L1 cells; blocked ligand PD-1-Fc
Method: (§3) The bispecific antibodies were tested for their blocking activity on PD-1-PD-L1 binding by FACS using the HEK293A cells stably expressing human PD-L1 molecules as prepared in Example 1. Briefly, a 96-well plate was seeded with 10⁵ HEK293A/human PD-L1 cells in 100 μl cell culture medium, and then added with 50 μl serially diluted anti-PD-L1 antibody 56E5VH5VL4 or MBS307-3 molecules. After incubation at 4° C. for 1 h. the plate was washed with PBST for 3 times, added with 100 μl 200 μg/ml PD-1-Fc fusion proteins (Cat #:10377-10211, Sino Biological, CN), incubated at 4° C. for 1 h, washed with PBST for 3 times, and added with 1:500 diluted PE-goat anti-human IgG (Cat #:PAI-86078, Thermofisher, USA). After incubation at 4° C. for 1 h, the plate was washed with PBST for 3 times and measured for fluorescence using a FACS machine (BD).

[5] = target: T1, human PD-L1 on HEK293A/human PD-L1 cells; experiment: as above; remark: listed apart in the source
Method: as §3
(§4) Following the protocol of Example 7, the bi- or multi-specific antibodies were tested for their capability to block PD-1-PD-L1 binding by FACS, using the HEK293A cells prepared in Example 1 that stably expressed human PD-L1 molecules.

[6] = target: monkey PD-L1 on HEK293A/monkey PD-L1 cells (monkey, UniProt Q9NZQ7 19-290 (human entry)); experiment: FACS on HEK293A/monkey PD-L1 cells
Sequence of monkey PD-L1 on HEK293A/monkey PD-L1 cells (Q9NZQ7 other isoform, or with tags, fused parts or gaps limits assumed): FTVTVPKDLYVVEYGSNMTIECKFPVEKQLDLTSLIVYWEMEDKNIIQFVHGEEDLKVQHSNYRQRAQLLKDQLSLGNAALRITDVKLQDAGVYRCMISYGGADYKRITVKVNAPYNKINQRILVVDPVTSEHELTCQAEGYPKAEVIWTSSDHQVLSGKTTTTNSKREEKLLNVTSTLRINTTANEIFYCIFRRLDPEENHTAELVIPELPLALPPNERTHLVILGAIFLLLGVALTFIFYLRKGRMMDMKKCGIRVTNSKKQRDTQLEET
Method: as §1
(§5) Following the protocol of Example 4, the bispecific antibodies were tested for their binding capability to cell surface human, or monkey PD-L1 proteins by FACS, using the HEK293A cells prepared in Example 1 that stably expressed human or monkey […].

[7] = target: T1, human PD-L1 on HEK293A/human PD-L1 cells; experiment: FACS blocking assay on HEK293A/human PD-L1 cells; blocked ligand PD-1-Fc; remark: listed apart in the source
Method: as §3, §4

[8] = target: T1, human PD-L1 on HEK293A/human PD-L1 cells; experiment: FACS on HEK293A/human PD-L1 cells; remark: listed apart in the source
Method: as §1, §5

[9] = target: T2, human CD40 on HEK293A/human CD40 cells (human, UniProt P25942 21-277); experiment: FACS on HEK293A/human CD40 cells
T2 construct: also called HEK-Blue/CD40 cells
Method: as §1

[10] = target: T3, mouse CD40 on HEK293A cells (mouse, UniProt P27512 20-289); experiment: FACS on HEK293A cells expressing mouse CD40
T3 sequence: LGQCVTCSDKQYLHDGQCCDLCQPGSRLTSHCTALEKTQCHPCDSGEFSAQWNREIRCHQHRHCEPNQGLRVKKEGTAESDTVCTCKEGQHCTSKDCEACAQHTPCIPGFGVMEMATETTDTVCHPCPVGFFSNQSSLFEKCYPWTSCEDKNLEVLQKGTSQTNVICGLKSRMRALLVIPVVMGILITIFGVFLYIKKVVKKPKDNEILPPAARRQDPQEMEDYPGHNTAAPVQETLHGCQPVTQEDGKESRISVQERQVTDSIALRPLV
Method: as §1

[11] = target: T4, monkey CD40 on HEK293A/monkey CD40 cells (monkey, UniProt P25942 21-277 (human entry)); experiment: FACS on HEK293A/monkey CD40 cells
T4 chain: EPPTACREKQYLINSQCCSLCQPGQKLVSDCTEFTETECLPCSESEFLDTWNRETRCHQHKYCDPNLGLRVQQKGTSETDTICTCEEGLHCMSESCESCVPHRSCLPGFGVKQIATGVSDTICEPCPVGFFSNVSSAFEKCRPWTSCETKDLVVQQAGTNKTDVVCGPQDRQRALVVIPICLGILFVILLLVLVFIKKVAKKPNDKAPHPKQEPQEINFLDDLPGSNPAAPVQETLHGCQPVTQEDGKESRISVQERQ
Method: as §1

Row | Binder | EC50 (read off the curve) [1] | EC50 (read off the curve) [2] | EC50 (read off the curve) [3] | IC50 (read off the curve) [4] | IC50 (read off the curve) [5] | EC50 (read off the curve) [6] | IC50 (read off the curve) [7] | EC50 (read off the curve) [8] | EC50 (read off the curve) [9] | binding result [10] | EC50 (read off the curve) [11] | binding result [6]
1 | B1 | ~0.04 µg/mL | ~0.05 µg/mL | ~0.04 µg/mL | ~0.06 µg/mL | ~0.02 µg/mL | ~0.04 µg/mL | ~0.06 µg/mL | ~0.07 µg/mL |  |  |  | 
2 | B2 |  |  |  |  |  |  |  | ~0.3 µg/mL | ~0.2 µg/mL | no binding (tested: starting concentration at 40 µg/ml) | ~0.2 µg/mL | binds
